We go through two molecules from US20240417459A1 (CELLDEX THERAPEUTICS, published 2024).

For this assay, the target named is T1, human ILT4 expressed on HEK293 cells (human, UniProt Q8N423 22-597).
T1 construct: also called LILRB2; LIR2
Kind of assay: bifunctional flow cytometry: bispecific bound to HEK293 cells expressing human ILT4, then human PD-L1-msFc detected with PE anti-mouse IgG Fc. The method, then:
Binding of bispecific constructs to ILT4 and PD-L1 was assessed using HEK293 cells expressing human ILT4. In brief, dilutions of the bispecific constructs were allowed to bind to the ILT4 expressing cell before adding human PD-L1-msFc that was detected with PE labeled goat anti-mouse IgG Fc-specific probe.
(In flow cytometry, cells or beads pass a laser one at a time.)

T1 sequence (Q8N423 other isoform, or with tags, fused parts or gaps limits assumed): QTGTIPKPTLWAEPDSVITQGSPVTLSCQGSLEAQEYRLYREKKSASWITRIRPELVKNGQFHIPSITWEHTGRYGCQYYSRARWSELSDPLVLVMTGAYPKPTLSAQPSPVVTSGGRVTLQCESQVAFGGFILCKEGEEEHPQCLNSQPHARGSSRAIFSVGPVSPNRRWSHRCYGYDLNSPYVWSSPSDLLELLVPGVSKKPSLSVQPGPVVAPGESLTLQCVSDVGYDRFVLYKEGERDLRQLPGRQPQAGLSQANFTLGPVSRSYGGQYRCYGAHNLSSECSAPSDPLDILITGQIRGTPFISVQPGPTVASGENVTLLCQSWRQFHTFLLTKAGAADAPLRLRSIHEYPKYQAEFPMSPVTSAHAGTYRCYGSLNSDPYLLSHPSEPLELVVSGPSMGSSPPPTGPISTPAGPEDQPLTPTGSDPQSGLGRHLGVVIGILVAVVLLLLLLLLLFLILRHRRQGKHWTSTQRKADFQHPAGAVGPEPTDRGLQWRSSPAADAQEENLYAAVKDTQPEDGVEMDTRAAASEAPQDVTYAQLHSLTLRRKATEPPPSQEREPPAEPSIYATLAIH

B1: 9H9-7B1 HL (bispecific antibody, human IgG1, kappa)
heavy: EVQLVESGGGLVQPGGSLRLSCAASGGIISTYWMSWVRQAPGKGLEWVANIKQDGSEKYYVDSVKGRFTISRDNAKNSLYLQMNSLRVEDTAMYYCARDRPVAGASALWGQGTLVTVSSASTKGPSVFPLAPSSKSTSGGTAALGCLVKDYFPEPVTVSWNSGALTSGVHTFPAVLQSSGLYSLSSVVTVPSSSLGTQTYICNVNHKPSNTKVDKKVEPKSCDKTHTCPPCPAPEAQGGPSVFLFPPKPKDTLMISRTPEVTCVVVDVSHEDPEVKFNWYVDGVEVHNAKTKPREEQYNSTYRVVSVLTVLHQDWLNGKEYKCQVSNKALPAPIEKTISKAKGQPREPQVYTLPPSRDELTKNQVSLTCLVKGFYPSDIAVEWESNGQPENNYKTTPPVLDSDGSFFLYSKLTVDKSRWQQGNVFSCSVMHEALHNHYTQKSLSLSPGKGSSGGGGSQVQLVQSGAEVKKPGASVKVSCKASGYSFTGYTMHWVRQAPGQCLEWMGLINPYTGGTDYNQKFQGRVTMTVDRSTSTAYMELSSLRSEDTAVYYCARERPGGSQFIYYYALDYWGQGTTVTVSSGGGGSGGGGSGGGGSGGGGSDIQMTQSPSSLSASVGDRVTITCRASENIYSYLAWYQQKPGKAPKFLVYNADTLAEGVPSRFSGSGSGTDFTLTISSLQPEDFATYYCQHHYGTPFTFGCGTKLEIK
light: DIQMTQSPSTLSASVGDRVTITCRASQSISGWLAWYQQKPGKAPKLLIYKASSLESGVPSRFSGSGSGTEFTLTISSLQPDDFATYYCQQYYGSSRTFGQGTNVEIKRTVAAPSVFIFPPSDEQLKSGTASVVCLLNNFYPREAKVQWKVDNALQSGNSQESVTEQDSKDSTYSLSSTLTLSKADYEKHKVYACEVTHQGLSSPVTKSFNRGEC
notes: Tetravalent bispecific: anti-PD-L1 9H9 on a mutated human IgG1 (AQQ Fc) with the 7B1 scFv (VH-VL) at the C-terminus of the heavy chain; also called 9H9 AQQ-7B1 H2L1; PD-L1xILT4 bispecific antibody
As to B1, the binding result is “binds”.

B2: 9H9-7B1 LH (bispecific antibody, human IgG1, kappa)
heavy: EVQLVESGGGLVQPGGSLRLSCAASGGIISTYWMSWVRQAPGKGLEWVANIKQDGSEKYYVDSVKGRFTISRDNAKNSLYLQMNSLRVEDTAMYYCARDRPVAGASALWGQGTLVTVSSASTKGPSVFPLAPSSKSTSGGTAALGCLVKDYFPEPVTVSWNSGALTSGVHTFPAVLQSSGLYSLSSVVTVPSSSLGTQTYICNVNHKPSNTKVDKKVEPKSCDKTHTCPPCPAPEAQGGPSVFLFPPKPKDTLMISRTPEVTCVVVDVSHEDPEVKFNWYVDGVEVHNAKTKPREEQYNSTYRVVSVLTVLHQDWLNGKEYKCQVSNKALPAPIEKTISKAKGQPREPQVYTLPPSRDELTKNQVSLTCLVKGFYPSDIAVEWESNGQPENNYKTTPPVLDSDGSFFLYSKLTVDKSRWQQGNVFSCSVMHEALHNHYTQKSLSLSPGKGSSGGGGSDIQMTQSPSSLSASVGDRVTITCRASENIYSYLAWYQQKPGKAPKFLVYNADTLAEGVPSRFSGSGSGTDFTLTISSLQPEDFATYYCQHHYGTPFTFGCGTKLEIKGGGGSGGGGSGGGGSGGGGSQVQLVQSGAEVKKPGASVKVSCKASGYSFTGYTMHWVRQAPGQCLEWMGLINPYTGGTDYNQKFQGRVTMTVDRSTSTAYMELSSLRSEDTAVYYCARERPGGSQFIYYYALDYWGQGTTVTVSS
light: B1 light
notes: Tetravalent bispecific as 9H9-7B1 HL, but with the scFv in the VL-VH orientation; also called 9H9 AQQ-7B1 L1H2; PD-L1xILT4 bispecific antibody
As to B2, the binding result is “binds”.
